Measured values taken from patent publication US7566535B2, “Enhanced oligonucleotide-mediated nucleic acid sequence alteration” (University of Delaware, priority 2002, dated 2009).
In the oligonucleotide strings, read from the 5' end, every base follows the letter of its sugar. An asterisk marks phosphorothioate; unmarked linkages are phosphodiester. Other units and linkages are bracketed, terminal groups are in braces. A string of capitals states the bases alone. d = 2'-deoxy (DNA)

What was measured:
pAURHYG(ins)eGFP = test: In vivo correction of episomal pAURHYG(ins)eGFP in yeast; conditions: for Average colony count on hygromycin plates / hygromycin-resistant colonies per aureobasidin-resistant colony: wild-type LSY678; for Colonies on Hygromycin / Correction Efficiency / Fold: 5 μg oligo
CYC1 gene = CYC1 gene repair in diploid yeast strains, growth on glycerol (YPG); conditions: YMH55; 5 μg oligo
pAURHYG(x)eGFP [1] = test: Hygromycin gene correction in yeast LSY678 with or without trichostatin A; conditions: 5 μg oligo
pAURHYG(x)eGFP [2] = test: Strand bias of hygromycin gene correction in rad1 and rad10 yeast mutants
pAURHYG(rep)eGFP = test: Correction of pAURHYG(rep)eGFP in yeast LSY678 with or without hydroxyurea; conditions: 20 mM hydroxyurea 4 h pre-treatment; growth time 10 min; 5 μg oligo (1.62 μg Hyg10)
[3] = Cells both pre-treated and treated during recovery with 50 μg/mL trichostatin A

B1: HygE3T/74: 74-base single-stranded DNA oligonucleotide, three phosphorothioate linkages at each end, SEQ ID NO: 8 (nucleic acid)
DNA: dC*dT*dC*dGdTdGdCdTdTdTdCdAdGdCdTdTdCdGdAdTdGdTdAdGdGdAdGdGdGdCdGdTdGdGdAdTdAdCdGdTdCdCdTdGdCdGdGdGdTdAdAdAdTdAdGdCdTdGdCdGdCdCdGdAdTdGdGdTdTdTdC*dT*dA*dC
Average colony count on hygromycin plates (pAURHYG(ins)eGFP; 1.0 μg oligo): 5 | hygromycin-resistant colonies per aureobasidin-resistant colony (pAURHYG(ins)eGFP; 1.0 μg oligo): 0.03 | Average colony count on hygromycin plates (pAURHYG(ins)eGFP; 2.5 μg oligo): 47 | hygromycin-resistant colonies per aureobasidin-resistant colony (pAURHYG(ins)eGFP; 2.5 μg oligo): 0.29 | Average colony count on hygromycin plates (pAURHYG(ins)eGFP; 5.0 μg oligo): 199 | hygromycin-resistant colonies per aureobasidin-resistant colony (pAURHYG(ins)eGFP; 5.0 μg oligo): 1.24 | Average colony count on hygromycin plates (pAURHYG(ins)eGFP; 7.5 μg oligo): 54 | hygromycin-resistant colonies per aureobasidin-resistant colony (pAURHYG(ins)eGFP; 7.5 μg oligo): 0.34 | Average colony count on hygromycin plates (pAURHYG(ins)eGFP; 10.0 μg oligo): 17 | hygromycin-resistant colonies per aureobasidin-resistant colony (pAURHYG(ins)eGFP; 10.0 μg oligo): 1.10 | Colonies on Hygromycin (pAURHYG(ins)eGFP; Exo1 mutant): 2 | Correction Efficiency (pAURHYG(ins)eGFP; Exo1 mutant): 0.01 | Fold (pAURHYG(ins)eGFP; Exo1 mutant): 0x | Colonies on Hygromycin (pAURHYG(ins)eGFP; mre11 mutant): 3 | Correction Efficiency (pAURHYG(ins)eGFP; mre11 mutant): 0.09 | Fold (pAURHYG(ins)eGFP; mre11 mutant): 0.03x | Colonies on Hygromycin (pAURHYG(ins)eGFP; msh2 mutant): 0 | Correction Efficiency (pAURHYG(ins)eGFP; msh2 mutant): 0 | Fold (pAURHYG(ins)eGFP; msh2 mutant): 0x | Colonies on Hygromycin (pAURHYG(ins)eGFP; msh3 mutant): 1 | Correction Efficiency (pAURHYG(ins)eGFP; msh3 mutant): 0.05 | Fold (pAURHYG(ins)eGFP; msh3 mutant): 0.02x | Colonies on Hygromycin (pAURHYG(ins)eGFP; msh6 mutant): 0 | Correction Efficiency (pAURHYG(ins)eGFP; msh6 mutant): 0 | Fold (pAURHYG(ins)eGFP; msh6 mutant): 0x | Colonies on Hygromycin (pAURHYG(ins)eGFP; pms1 mutant): 111 | Correction Efficiency (pAURHYG(ins)eGFP; pms1 mutant): 18.5 | Fold (pAURHYG(ins)eGFP; pms1 mutant): 5.35x | Colonies on Hygromycin (pAURHYG(ins)eGFP; rad1 mutant): 52 | Correction Efficiency (pAURHYG(ins)eGFP; rad1 mutant): 0.59 | Fold (pAURHYG(ins)eGFP; rad1 mutant): 0.17x | Colonies on Hygromycin (pAURHYG(ins)eGFP; rad2 mutant): 113 | Correction Efficiency (pAURHYG(ins)eGFP; rad2 mutant): 1.79 | Fold (pAURHYG(ins)eGFP; rad2 mutant): 0.52x | Colonies on Hygromycin (pAURHYG(ins)eGFP; rad10 mutant): 14 | Correction Efficiency (pAURHYG(ins)eGFP; rad10 mutant): 0.14 | Fold (pAURHYG(ins)eGFP; rad10 mutant): 0.04x | Colonies on Hygromycin (pAURHYG(ins)eGFP; rad23 mutant): 1 | Correction Efficiency (pAURHYG(ins)eGFP; rad23 mutant): 0.01 | Fold (pAURHYG(ins)eGFP; rad23 mutant): 0x | Colonies on Hygromycin (pAURHYG(ins)eGFP; rad50 mutant): 1 | Correction Efficiency (pAURHYG(ins)eGFP; rad50 mutant): 0.06 | Fold (pAURHYG(ins)eGFP; rad50 mutant): 0.02x | Colonies on Hygromycin (pAURHYG(ins)eGFP; rad51/52 mutant): 3 | Correction Efficiency (pAURHYG(ins)eGFP; rad51/52 mutant): 0.3 | Fold (pAURHYG(ins)eGFP; rad51/52 mutant): 0.01x | Colonies on Hygromycin (pAURHYG(ins)eGFP; rad51 mutant): 19 | Correction Efficiency (pAURHYG(ins)eGFP; rad51 mutant): 0.59 | Fold (pAURHYG(ins)eGFP; rad51 mutant): 0.17x | Colonies on Hygromycin (pAURHYG(ins)eGFP; rad52 mutant): 31 | Correction Efficiency (pAURHYG(ins)eGFP; rad52 mutant): 0.86 | Fold (pAURHYG(ins)eGFP; rad52 mutant): 0.24x | Colonies on Hygromycin (pAURHYG(ins)eGFP; rad54 mutant): 0 | Correction Efficiency (pAURHYG(ins)eGFP; rad54 mutant): 0 | Fold (pAURHYG(ins)eGFP; rad54 mutant): 0x | Colonies on Hygromycin (pAURHYG(ins)eGFP; rad55 mutant): 0 | Correction Efficiency (pAURHYG(ins)eGFP; rad55 mutant): 0 | Fold (pAURHYG(ins)eGFP; rad55 mutant): 0X | Colonies on Hygromycin (pAURHYG(ins)eGFP; rad57 mutant): 34 | Correction Efficiency (pAURHYG(ins)eGFP; rad57 mutant): 0.33 | Fold (pAURHYG(ins)eGFP; rad57 mutant): 0.10x | Colonies on Hygromycin (pAURHYG(ins)eGFP; rad59 mutant): 116 | Correction Efficiency (pAURHYG(ins)eGFP; rad59 mutant): 2.47 | Fold (pAURHYG(ins)eGFP; rad59 mutant): 0.71x | Colonies on Hygromycin (pAURHYG(ins)eGFP; wild type): 256 | Correction Efficiency (pAURHYG(ins)eGFP; wild type): 3.46 | Fold (pAURHYG(ins)eGFP; wild type): 1x | Colonies on Hygromycin (pAURHYG(ins)eGFP; xrs2 mutant): 6 | Correction Efficiency (pAURHYG(ins)eGFP; xrs2 mutant): 0.04 | Fold (pAURHYG(ins)eGFP; xrs2 mutant): 0.01x | C.E. (CYC1 gene): 0 ×10^−4 | No. of YPG Plate Colonies (CYC1 gene): 0 | Correction Efficiency (pAURHYG(x)eGFP [1]; [3]): 2.05 1/10^5 | Hyg^r (pAURHYG(x)eGFP [1]; [3]): 230 | Correction Efficiency (pAURHYG(x)eGFP [1]; Cells treated during recovery with 50 μg/mL trichostatin A): 0.34 1/10^5 | Correction Efficiency (pAURHYG(x)eGFP [1]; No treatment): 0.16 1/10^5 | Colonies on Hygromycin (pAURHYG(x)eGFP [2]; rad1 mutant): 3 | Colonies on Hygromycin (pAURHYG(x)eGFP [2]; rad10 mutant): 2 | Correction Efficiency (pAURHYG(rep)eGFP): 3.1 hygromycin resistant colonies
